Publication PMC9866218 (2023)

Assays:
KV1.2 [1] = biological target: T1, KV1.2 (Homo sapiens, UniProt P16389); assay: whole-cell patch clamp (koff/kon block kinetics)
KCa3.1 = KCa3.1 (Homo sapiens, UniProt O15554); assay: whole-cell patch clamp (Hill fit of concentration-response)
KV1.2 [2] = biological target: T1, KV1.2; assay: as above
KCa2.2 = KCa2.2 (Homo sapiens, UniProt Q9H2S1); assay: as above
Sequence of KCa2.2 (Q9H2S1 whole entry): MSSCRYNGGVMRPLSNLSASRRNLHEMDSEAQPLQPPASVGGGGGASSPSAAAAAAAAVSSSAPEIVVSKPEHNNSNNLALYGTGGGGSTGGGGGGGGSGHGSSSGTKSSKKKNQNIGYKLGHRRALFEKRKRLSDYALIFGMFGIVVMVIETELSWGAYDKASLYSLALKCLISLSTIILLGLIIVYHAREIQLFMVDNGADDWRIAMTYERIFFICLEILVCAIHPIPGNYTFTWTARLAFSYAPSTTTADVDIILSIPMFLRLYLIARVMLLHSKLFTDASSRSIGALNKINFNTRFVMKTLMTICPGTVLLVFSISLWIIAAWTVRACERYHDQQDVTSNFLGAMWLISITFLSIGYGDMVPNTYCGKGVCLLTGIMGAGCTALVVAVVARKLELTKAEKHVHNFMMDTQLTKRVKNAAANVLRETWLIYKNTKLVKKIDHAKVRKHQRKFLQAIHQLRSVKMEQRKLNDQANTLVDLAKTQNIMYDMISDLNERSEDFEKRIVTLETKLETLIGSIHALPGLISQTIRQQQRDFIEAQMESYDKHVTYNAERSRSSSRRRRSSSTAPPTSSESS

T1 sequence (P16389 whole entry): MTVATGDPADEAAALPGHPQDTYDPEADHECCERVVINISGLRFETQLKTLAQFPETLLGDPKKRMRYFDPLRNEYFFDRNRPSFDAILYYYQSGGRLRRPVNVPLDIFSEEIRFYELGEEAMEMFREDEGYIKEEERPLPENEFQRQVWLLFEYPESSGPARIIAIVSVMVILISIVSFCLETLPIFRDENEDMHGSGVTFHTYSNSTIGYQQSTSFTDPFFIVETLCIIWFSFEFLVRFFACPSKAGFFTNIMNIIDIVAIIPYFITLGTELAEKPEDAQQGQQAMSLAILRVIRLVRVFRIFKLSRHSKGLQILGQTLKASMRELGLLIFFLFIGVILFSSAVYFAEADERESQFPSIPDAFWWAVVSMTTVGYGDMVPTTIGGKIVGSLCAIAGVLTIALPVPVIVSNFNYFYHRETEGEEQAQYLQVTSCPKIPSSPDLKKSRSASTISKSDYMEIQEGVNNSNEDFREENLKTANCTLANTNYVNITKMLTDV
Sequence of KCa3.1 (O15554 whole entry): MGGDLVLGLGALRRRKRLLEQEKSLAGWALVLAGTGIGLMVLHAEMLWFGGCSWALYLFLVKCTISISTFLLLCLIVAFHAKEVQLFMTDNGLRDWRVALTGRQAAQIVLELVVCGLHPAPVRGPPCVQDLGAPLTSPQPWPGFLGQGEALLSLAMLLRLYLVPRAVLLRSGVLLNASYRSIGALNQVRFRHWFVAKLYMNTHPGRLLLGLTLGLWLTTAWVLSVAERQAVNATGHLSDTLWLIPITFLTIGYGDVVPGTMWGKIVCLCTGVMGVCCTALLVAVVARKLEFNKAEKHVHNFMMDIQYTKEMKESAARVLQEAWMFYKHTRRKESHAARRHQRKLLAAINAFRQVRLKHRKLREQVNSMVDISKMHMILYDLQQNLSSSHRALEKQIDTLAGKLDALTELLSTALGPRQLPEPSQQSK

TFINHKCKSSSECLPACKAAIGRASGKCINSTCKCYY [Cm39 (α-KTx 4.8)] showed a Kd (KV1.2 [1]) of 87.8 nM, a Kd (KCa3.1) of 57.7 nM and a Kd (KV1.2 [2]) of 65 nM. For the same binder, the Kd (KCa2.2) was 502 nM.
